Reference: PMC9675756

Experiments:
[1] = target: A3G-CTD2 (catalytically active), crystal and NMR construct (human) (UniProt Q9HC16); test: competitive inhibition of deamination, real-time 1H NMR; conditions: N at position 6 = 2'-deoxy-zebularine (replaces target C); hydrated to 4-(R)-hydroxy-3,4-dihydro form in the active enzyme; DTT, 0.002% Tween 20, 50 nM protein, RED-tris-NTA dye, 23 C; NMR inhibition: 50 mM NaPO4 pH 6.5, 100 mM NaCl, 0.00
[2] = target: A3G-CTD2* (catalytically inactive), MST construct E259A (human) (UniProt Q9HC16); test: MST; conditions: N at position 6 = 2'-deoxy-zebularine (replaces target C); hydrated to 4-(R)-hydroxy-3,4-dihydro form in the active enzyme; MST: 20 mM Bis-Tris pH 6.5, 100 mM NaCl, 1 mM DTT, 0.002% Tween 20, 50 nM protein, RED-tris-NTA dye, 23 C; NMR inhibition: 50 mM NaPO4 pH 6.5, 100 mM NaCl …
[3] = target: A3G-CTD2 (catalytically active soluble variant), MST construct (human) (UniProt Q9HC16); test: MST; conditions: 23 C, apparent Kd, active enzyme hydrates dZ, N at position 6 = 2'-deoxy-zebularine (replaces target C), hydrated to 4-(R)-hydroxy-3,4-dihydro form in the active enzyme, MST: 20 mM Bis-Tris pH 6.5, 100 mM NaCl, 1 mM DTT, 0.002% Tween 20, 50 nM protein, RED-tris-NTA dye, NMR inhibition: 50 mM NaPO4 pH 6.5, 100 mM NaCl …

A3G-CTD2* (catalytically inactive), MST construct E259A (human), sequence (Q9HC16 191-384 E259A): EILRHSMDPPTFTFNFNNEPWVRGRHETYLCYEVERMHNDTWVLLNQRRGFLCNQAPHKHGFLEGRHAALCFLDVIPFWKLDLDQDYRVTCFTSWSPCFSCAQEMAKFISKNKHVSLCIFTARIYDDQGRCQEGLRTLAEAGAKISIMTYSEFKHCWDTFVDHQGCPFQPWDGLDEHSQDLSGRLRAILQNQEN
A3G-CTD2 (catalytically active), crystal and NMR construct (human), sequence (Q9HC16 191-384): as the sequence (Q9HC16 191-384 E259A) above, with A69E counted along it

AATCCNAAA [5'-AATCCdZAAA (dZ-ssDNA inhibitor)]
Ki [1]: 3.07 µM | Kd [2]: 14.3 µM | Kd [3]: 0.27 µM
